Assay results from publication PMC8211771.

Substrate: O=[N+]([O-])c1ccc(O[C@@H]2O[C@H](CO)[C@H](O)[C@H](O)[C@H]2O)cc1
Test: purified protein
Conditions: 100 mM phosphate-based buffer, 5 μM protein
[1] = pH 8.4, 20 °C (room temperature), Figure 6 legend gives 0.052 mM (±0.007), pH 8.4
[2] = pH 8.0, 20 °C (room temperature), Figure 6 legend gives 0.047 mM (±0.005), pH 8.0
[3] = pH 8.0, 20 °C (room temperature), Figure 6 legend gives 0.07 mM (±0.012), pH 8.0
[4] = pH 8.0, 20 °C (room temperature), Figure 6 legend gives 0.13 mM (±0.010), pH 8.0

B1: BT3158 (Bacteroides thetaiotaomicron VPI-5482) (protein)
chain: CEDVETHKPYGDGSGHAPGTVQVTSYEQIPGGVTLKFIAPTDEDLLYIKIKYTLDNGKEMEARASLYTDETTIEGFGNTNPKKLVISAVNKMEKEGEAIITEIVPGKPAYLTAIEEIEVNPTFGGIYIHTTNGGRNYLIFDVSTKDSKGNWNIEHTEYTSVKNIGFTLRGFSAEPHDFKVRVRDLYDNQSEEYLTTLTPLYEEKLDLTKFKTFYLANDIKMDNAGHTLESLFNGDHGLNSWNYAHGYDFNPSEFPVWFTFDMGQTAQLSRFTSWQRSMGGSYYYRAGAIKEWEVWGRSDLPSSDGSWDGWTKLADCESIKPSGWPTGSNSEEDITYASKGEEFEFLADIPPVRYIRFKILSTHDGAGLVVMQQLWFYGTPIQ
Which results are given for B1?
kcat [1]: 1.21 s⁻¹; kcat/Km [1]: 23300 M⁻¹ s⁻¹

B2: BT2857C (Bacteroides thetaiotaomicron VPI-5482) (protein)
chain: ELDKTKFREMYLQNDSRVDSYDGKMEYVWNGRISKDGDSGGVGLHTGTGTKDGPAVFTFDLGVLAKLSRFALWAIQDEKHFYNDMSPRRYEVWGCATEPNPDGSWDQWVKLLDMENVKPSGSPIGILTEDDIEAAKIGDQANVPLDMPRVRYIRIKCLKNWSNNYNICFTELTFWGND
Which results are given for B2?
kcat [2]: 0.011 s⁻¹; kcat/Km [2]: 234 M⁻¹ s⁻¹

B3: BT2857N (Bacteroides thetaiotaomicron VPI-5482) (protein)
chain: CAEDMVKPIENDKDAPGTVQDVKTESLPGAVKFTYTLPSDPDLLYVLAKYTNKTGKVMEFRSSFYTNSVTVEGFGDTDTYKVELYTVDRSENRSQPQIVEVVPLTPPILSCYESLSMVSDFGGMTFEMDNKFKSDLAIYVCTPDELGDMVLAETFYSAREEIVYSVRGYDAVPRRFGIFLQDKYGNETDTLFTELTPIYERELDKT
How did the kcat [3] turn out when B3 was run?
The kcat was 0.046 s⁻¹.

What about the kcat/Km [3] of the same protein?
The kcat/Km was 657 M⁻¹ s⁻¹.

B4: BT2857 (Bacteroides thetaiotaomicron VPI-5482) (protein)
chain: CAEDMVKPIENDKDAPGTVQDVKTESLPGAVKFTYTLPSDPDLLYVLAKYTNKTGKVMEFRSSFYTNSVTVEGFGDTDTYKVELYTVDRSENRSQPQIVEVVPLTPPILSCYESLSMVSDFGGMTFEMDNKFKSDLAIYVCTPDELGDMVLAETFYSAREEIVYSVRGYDAVPRRFGIFLQDKYGNETDTLFTELTPIYERELDKTKFREMYLQNDSRVDSYDGKMEYVWNGRISKDGDSGGVGLHTGTGTKDGPAVFTFDLGVLAKLSRFALWAIQDEKHFYNDMSPRRYEVWGCATEPNPDGSWDQWVKLLDMENVKPSGSPIGILTEDDIEAAKIGDQANVPLDMPRVRYIRIKCLKNWSNNYNICFTELTFWGNDNEE
For B4, which kcat [4] is on record?
Its kcat is 0.046 s⁻¹.

What about the kcat/Km [4] of the same protein?
The kcat/Km was 354 M⁻¹ s⁻¹.
